Ends that are not written are not given here. * marks the point of attachment. 125I = [125I]*
Molecular target: NTP receptor on human neutrophils (human)
Experiment: saturation curve and Scatchard-like analysis of 125I-NTP-Y binding to human neutrophils

Y(125I)RRPESKATNATLDPR [125I-labeled NTP-Y (human Neutrophil Targeting Peptide synthesized with an N-terminal tyrosine)]
NTP receptors per cell (receptors per cell): 3000
